Measured values published in paper PMC8497785, “Structural Characterization of the RNA-Binding Protein SERBP1 Reveals Intrinsic Disorder and Atypical RNA Binding Modes”.

Molecular target: T1, SERBP1 189-400 (Homo sapiens, UniProt Q8NC51 189-400)
T1 sequence: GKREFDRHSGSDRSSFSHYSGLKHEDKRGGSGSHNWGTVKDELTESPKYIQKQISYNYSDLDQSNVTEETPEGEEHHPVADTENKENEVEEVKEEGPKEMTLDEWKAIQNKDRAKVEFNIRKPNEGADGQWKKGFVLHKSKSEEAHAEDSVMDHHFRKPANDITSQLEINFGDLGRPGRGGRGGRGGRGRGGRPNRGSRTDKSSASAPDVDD
Assay: NMR 1H,15N-HSQC titration; RNA:protein 2:5 to 8:5; CSPs from C-terminal RGG box to C-terminus (N383, T388, S394, A395, V398), RGG glycine broadening; 20 mM sodium phosphate pH 6.9, 60 mM NaCl, 1 mM PMSF, 0.2 mM EDTA, 10% D2O, 4 °C; 50 µM protein
Settings: protein: recombinant; tags: N-terminal 8xHis removed by TEV (vector-derived residues may remain)

Binder: GCGCGGG (ssRNA) [7-mer G-rich RNA (G-quartet ligand)]
- binding result: binds
